Reference: article PMC11143218, “Evolved histone tail regulates 53BP1 recruitment at damaged chromatin” (Nature Communications, 2024)
Non-standard residues stand in square brackets, D forms with d. No end group written: not given here. *: point of attachment. Biotin = O=C1N[C@H]2[C@H](CS[C@H]2CCCCC(=O)*)N1; pS = N[C@@H](COP(=O)(O)O)C(=O)O

Target: T1, MBP-53BP1 IRIF formation fragment a.a. 1220–1639 (human, UniProt Q12888 1220-1639)
T1 construct: 53BP1, minimal region for IRIF formation, a.a; also called in vitro purified 53BP1 a.a; source: E. coli BL21, purified (amylose resin, maltose elution)
Test: pull-down; in vitro: MBP-purified protein incubated with 10.5 μg biotinylated peptide and 10 μL streptavidin beads, 1 h at 4 °C; washed three times with NETN; western blot
Conditions: both partners purified

T1 sequence (Q12888 1220-1639): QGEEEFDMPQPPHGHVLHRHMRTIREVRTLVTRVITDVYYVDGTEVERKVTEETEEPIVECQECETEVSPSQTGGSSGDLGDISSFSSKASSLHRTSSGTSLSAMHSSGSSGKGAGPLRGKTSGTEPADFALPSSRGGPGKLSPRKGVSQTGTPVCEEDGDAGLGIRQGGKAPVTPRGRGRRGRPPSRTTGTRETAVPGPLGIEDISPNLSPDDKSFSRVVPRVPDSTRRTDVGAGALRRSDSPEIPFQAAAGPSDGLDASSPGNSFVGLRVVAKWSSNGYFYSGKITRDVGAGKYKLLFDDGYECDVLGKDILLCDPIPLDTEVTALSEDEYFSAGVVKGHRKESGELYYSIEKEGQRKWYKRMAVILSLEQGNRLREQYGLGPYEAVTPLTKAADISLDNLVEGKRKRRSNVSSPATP

B1: biotinylated phosphorylated S139 H2AX C-terminal tail peptide (peptide)
peptide: Biotin-TSATVGPKAPSGGKKATQA[pS]QEY
notes: also called 23-amino acid phosphorylated H2AX C-terminal tail peptide; γH2AX C-terminal tail; source: synthetic peptide, bought: genscript
binding result: binds
